Read-outs that look alike come from different tables or passages of the source.
Tests used:
ADI-74965 = target: T1, ADI-74965; assay: SPR Carterra avidity, CHO anti-ID; CHO-produced ADI-34134 (Table 10C)
T1 construct: pH-dependent anti-CD3 antibody made in CHO cells
Protocol: Kinetic analysis was conducted at 25° C. in an HBSTE running buffer system (Carterra Cat #3630) using a Carterra LSA (Carterra USA, Salt Lake City, UT). The sample compartment was maintained at 20° C. for the duration of each experiment.
For antibody capture experiments, a goat anti-human Fc antibody (Jackson ImmunoResearch) was covalently coupled to an HC30M sensor chip surface via standard amine coupling (1:1 EDC:NHS) and then blocked with ethanolamine (1.0 M, pH 8.5). Covalent coupling steps were performed in 25 mM MES buffer (Carterra, Cat #3625) plus 0.05% Tween20. The anti-CD3 antibodies (100 nM in running buffer) were flowed over discrete regions of interest on the chip surface for 5 minutes. […] Dissociation of the anti-idiotype antibodies was monitored for 300s. Several blank buffer samples were injected over the entire chip surface at the start of each non-regenerative kinetic cycle. The preceding blank buffer injection was used for blank surface subtraction. At the end of each non-regenerative kinetic cycle, all surfaces were regenerated via two 30s injections of 10 mM glycine, pH 1.7.
For data processing and fitting, sensorgrams were double reference subtracted with a baseline drift correction of 4 RU. Sensorgrams were y-aligned and baseline corrected, filtered and cropped to include only the association and dissociation steps. […]

CTL-19613 IgG = assay: BLI; tip ADI-34134 IgG, solution anti-CD3 IgG
Protocol: (§1) ForteBio affinity measurements were performed generally as previously described (Estep et al., MAbs. 2013 5(2):270-8). Briefly, ForteBio affinity measurements were performed by loading antibody IgG or Fabs on-line onto AHC sensors. Sensors were equilibrated off-line in assay buffer for 30 minutes and then monitored on-line for 60 seconds for baseline establishment. For avid binding measurement, sensors with loaded antibodies were exposed to IgG or Fab solutions for 3 minutes, afterwards they were transferred to assay buffer for 3 minutes for off-rate measurement. Kinetics data were fit using a 1:1 binding model in the data analysis software provided by ForteBio to obtain equilibrium dissociation constant (KD=koff/kₒₙ) values. In each column, tip-immobilized antibodies are listed first and solution antibodies second.
(§2) In each column, tip-immobilized antibodies are listed first and solution antibodies second.

ADI-26928 IgG = target: T2, ADI-26928 IgG; assay: BLI; tip ADI-34134 IgG, solution anti-CD3 IgG
T2 construct: anti-CD3 IgG
T2 sequence (VH, as listed by the source limits assumed, chain 1 of 2): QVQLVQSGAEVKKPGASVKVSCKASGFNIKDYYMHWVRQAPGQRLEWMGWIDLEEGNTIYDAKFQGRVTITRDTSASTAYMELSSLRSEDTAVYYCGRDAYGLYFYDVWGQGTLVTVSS
T2 sequence (VL, as listed by the source limits assumed, chain 2 of 2): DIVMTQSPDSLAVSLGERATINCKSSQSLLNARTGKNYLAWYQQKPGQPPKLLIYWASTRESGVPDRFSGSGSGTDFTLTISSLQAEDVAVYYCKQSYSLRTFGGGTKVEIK
Protocol: as §1, §2

ADI-26954 IgG = target: T3, ADI-26954 IgG; assay: BLI; tip ADI-34134 IgG, solution anti-CD3 IgG
T3 construct: anti-CD3 IgG
T3 sequence (VH, as listed by the source limits assumed, chain 1 of 2): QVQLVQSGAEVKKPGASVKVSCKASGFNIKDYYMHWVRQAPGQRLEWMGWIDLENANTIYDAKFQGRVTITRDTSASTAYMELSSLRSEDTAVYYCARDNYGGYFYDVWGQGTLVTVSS
T3 sequence (VL, as listed by the source limits assumed, chain 2 of 2): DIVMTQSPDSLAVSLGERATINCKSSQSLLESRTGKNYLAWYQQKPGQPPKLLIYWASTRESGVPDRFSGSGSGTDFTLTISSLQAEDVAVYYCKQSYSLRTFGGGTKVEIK
Protocol: as §1, §2

ADI-26906 IgG = target: T4, ADI-26906 IgG; assay: BLI; tip ADI-34134 IgG, solution anti-CD3 IgG
T4 construct: anti-CD3 IgG
T4 sequence (VH, as listed by the source limits assumed, chain 1 of 2): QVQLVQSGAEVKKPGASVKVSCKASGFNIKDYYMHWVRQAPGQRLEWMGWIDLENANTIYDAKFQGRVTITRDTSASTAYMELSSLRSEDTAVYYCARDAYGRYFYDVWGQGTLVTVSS
T4 sequence (VL, as listed by the source limits assumed, chain 2 of 2): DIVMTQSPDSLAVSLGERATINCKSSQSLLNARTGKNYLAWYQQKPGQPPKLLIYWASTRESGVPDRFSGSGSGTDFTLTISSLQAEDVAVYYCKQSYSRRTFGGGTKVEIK
Protocol: as §1, §2

ADI-26927 IgG = target: T5, ADI-26927 IgG; assay: BLI; tip ADI-34134 IgG, solution anti-CD3 IgG
T5 construct: anti-CD3 IgG
T5 sequence (VH, as listed by the source limits assumed, chain 1 of 2): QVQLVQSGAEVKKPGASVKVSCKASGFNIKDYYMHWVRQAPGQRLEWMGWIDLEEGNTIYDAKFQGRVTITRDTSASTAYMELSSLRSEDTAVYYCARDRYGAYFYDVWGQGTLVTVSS
Protocol: as §1, §2

ADI-26916 IgG = target: T6, ADI-26916 IgG; assay: BLI; tip ADI-34134 IgG, solution anti-CD3 IgG
T6 construct: anti-CD3 IgG
T6 sequence (VH, as listed by the source, chain 1 of 2): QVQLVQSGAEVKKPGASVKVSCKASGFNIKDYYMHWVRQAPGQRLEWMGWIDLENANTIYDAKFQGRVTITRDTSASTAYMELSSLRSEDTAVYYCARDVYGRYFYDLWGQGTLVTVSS
Protocol: as §1, §2

ADI-26913 IgG = target: T7, ADI-26913 IgG; assay: BLI; tip ADI-34134 IgG, solution anti-CD3 IgG
T7 construct: anti-CD3 IgG
T7 sequence (VH, as listed by the source limits assumed, chain 1 of 2): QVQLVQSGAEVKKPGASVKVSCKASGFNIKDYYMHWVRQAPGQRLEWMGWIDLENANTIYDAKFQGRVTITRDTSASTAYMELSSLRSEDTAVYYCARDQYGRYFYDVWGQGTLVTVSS
Protocol: as §1, §2

ADI-26941 IgG = target: T8, ADI-26941 IgG; assay: BLI; tip ADI-34134 IgG, solution anti-CD3 IgG
T8 construct: anti-CD3 IgG
T8 sequence (VH, as listed by the source limits assumed, chain 1 of 2): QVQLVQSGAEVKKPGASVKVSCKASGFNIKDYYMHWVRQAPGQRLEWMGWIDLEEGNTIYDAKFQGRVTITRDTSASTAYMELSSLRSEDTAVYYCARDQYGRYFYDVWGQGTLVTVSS
T8 sequence (VL, as listed by the source limits assumed, chain 2 of 2): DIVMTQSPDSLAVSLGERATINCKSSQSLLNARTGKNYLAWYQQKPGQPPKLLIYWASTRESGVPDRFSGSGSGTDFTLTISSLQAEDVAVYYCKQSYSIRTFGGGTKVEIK
Protocol: as §1, §2

ADI-26921 IgG = target: T9, ADI-26921 IgG; assay: BLI; tip ADI-34134 IgG, solution anti-CD3 IgG
T9 construct: anti-CD3 IgG
T9 sequence (VH, as listed by the source limits assumed, chain 1 of 2): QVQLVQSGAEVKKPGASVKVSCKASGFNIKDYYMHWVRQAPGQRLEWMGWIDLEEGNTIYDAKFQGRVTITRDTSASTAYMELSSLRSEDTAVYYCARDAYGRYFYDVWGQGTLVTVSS
Protocol: as §1, §2

ADI-22523 IgG = target: T10, ADI-22523 IgG; assay: BLI; tip ADI-34134 IgG, solution anti-CD3 IgG
T10 construct: anti-CD3 IgG
T10 sequence (VH, as listed by the source limits assumed, chain 1 of 2): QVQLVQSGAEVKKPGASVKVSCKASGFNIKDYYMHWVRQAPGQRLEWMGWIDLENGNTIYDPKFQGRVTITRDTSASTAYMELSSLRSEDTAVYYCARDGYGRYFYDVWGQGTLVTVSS
T10 sequence (VL, as listed by the source limits assumed, chain 2 of 2): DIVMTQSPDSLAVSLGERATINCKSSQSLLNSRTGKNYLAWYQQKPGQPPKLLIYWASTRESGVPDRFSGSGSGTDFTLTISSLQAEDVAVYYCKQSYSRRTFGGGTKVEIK
Protocol: as §1, §2

CTL-62228 = target: T11, CTL-62228; assay: SPR Carterra, yeast anti-ID
T11 construct: also called glofitamab
Method in brief: (§3)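 Measured at 25° C in HBSTE running buffer on a Carterra LSA; anti-CD3 antibodies (100 nM) were captured for 5 min on an amine-coupled goat anti-human Fc HC30M chip. Anti-idiotype dissociation was followed for 300s, and double-referenced sensorgrams were fitted to a 1:1 binding model.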

CTL-62227 = target: T12, CTL-62227; assay: SPR Carterra, yeast anti-ID
T12 construct: also called odronextamab
T12 sequence (VH, as listed by the source, chain 1 of 2): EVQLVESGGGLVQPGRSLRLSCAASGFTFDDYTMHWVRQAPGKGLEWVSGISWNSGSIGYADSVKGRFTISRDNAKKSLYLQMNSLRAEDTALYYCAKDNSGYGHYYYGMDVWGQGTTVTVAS
T12 sequence (VL, as listed by the source, chain 2 of 2): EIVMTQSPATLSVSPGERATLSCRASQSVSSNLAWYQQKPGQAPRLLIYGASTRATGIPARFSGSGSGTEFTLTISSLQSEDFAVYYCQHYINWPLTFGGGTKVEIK
Method in brief: as §3

ADI-70327 = target: T13, ADI-70327; assay: SPR Carterra, yeast anti-ID
T13 construct: anti-CD3 antibody made in CHO cells, captured by anti-human Fc
T13 sequence (VH, as listed by the source limits assumed, chain 1 of 2): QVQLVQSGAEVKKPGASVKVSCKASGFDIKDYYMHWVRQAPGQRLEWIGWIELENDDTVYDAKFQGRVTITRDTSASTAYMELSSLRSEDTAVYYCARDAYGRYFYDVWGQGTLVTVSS
T13 sequence (VL, as listed by the source limits assumed, chain 2 of 2): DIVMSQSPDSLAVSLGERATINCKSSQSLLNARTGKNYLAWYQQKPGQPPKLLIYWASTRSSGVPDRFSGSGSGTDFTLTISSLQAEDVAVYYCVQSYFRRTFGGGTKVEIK
Method in brief: as §3

CTL-62223 = target: T14, CTL-62223; assay: SPR Carterra, yeast anti-ID
T14 construct: also called mosunetuzumab
T14 sequence (VH, as listed by the source, chain 1 of 2): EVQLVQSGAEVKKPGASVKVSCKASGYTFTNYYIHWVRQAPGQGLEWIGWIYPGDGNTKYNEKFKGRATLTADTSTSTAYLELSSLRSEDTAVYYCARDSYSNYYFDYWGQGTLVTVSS
T14 sequence (VL, as listed by the source, chain 2 of 2): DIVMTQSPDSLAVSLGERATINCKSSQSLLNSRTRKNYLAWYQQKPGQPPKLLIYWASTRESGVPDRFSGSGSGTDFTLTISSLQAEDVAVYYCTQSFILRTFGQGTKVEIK
Method in brief: as §3

ADI-67445 = target: T15, ADI-67445; assay: SPR Carterra, yeast anti-ID
T15 construct: anti-CD3 antibody made in CHO cells, captured by anti-human Fc
T15 sequence (VH, as listed by the source limits assumed, chain 1 of 2): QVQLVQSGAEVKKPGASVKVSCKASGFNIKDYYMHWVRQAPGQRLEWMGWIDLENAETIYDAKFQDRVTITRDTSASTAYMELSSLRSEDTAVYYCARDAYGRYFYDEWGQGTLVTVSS
Method in brief: as §3

CTL-62240 = target: T16, CTL-62240; assay: SPR Carterra, yeast anti-ID
T16 construct: also called ONO-4685
T16 sequence (VH, as listed by the source, chain 1 of 2): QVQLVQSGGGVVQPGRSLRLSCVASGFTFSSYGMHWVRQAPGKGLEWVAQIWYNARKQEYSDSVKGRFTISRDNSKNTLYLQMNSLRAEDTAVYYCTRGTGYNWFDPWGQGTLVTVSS
T16 sequence (VL, as listed by the source, chain 2 of 2): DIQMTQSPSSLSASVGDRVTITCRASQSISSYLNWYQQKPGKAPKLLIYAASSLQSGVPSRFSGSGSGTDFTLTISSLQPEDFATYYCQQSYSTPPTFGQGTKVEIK
Method in brief: as §3

ADI-22523 Fab [1] = target: T17, ADI-22523 Fab; assay: BLI; tip ADI-34145 IgG, solution anti-CD3 Fab
T17 construct: anti-CD3 Fab by papain digestion of the IgG
Protocol: as §1, §2

ADI-26913 Fab = target: T18, ADI-26913 Fab; assay: BLI; tip ADI-34145 IgG, solution anti-CD3 Fab
T18 construct: anti-CD3 Fab by papain digestion of the IgG
Protocol: as §1, §2

ADI-26954 Fab = target: T19, ADI-26954 Fab; assay: BLI; tip ADI-34145 IgG, solution anti-CD3 Fab
T19 construct: anti-CD3 Fab by papain digestion of the IgG
Protocol: as §1, §2

ADI-26906 Fab = target: T20, ADI-26906 Fab; assay: BLI; tip ADI-34145 IgG, solution anti-CD3 Fab
T20 construct: anti-CD3 Fab by papain digestion of the IgG
Protocol: as §1, §2

ADI-22523 Fab [2] = target: T17, ADI-22523 Fab; assay: BLI; tip ADI-34145 IgG, solution anti-CD3 Fab; remark: listed apart in the source
Protocol: as §1
(§4) CTL-19613 is an IgG1 antibody prepared with anti-CD3 variable domains corresponding with those of clone 12C described in United States Publication Number US 2010/0183615 (e.g., see paragraphs 469-479 and FIG. 25 thereof), which also make up the CD3 binding domain of the bispecific antibody pasotuxizumab. […] In each column, tip-immobilized antibodies are listed first and solution antibodies second.

CTL-19672 Fab = target: T21, CTL-19672 Fab; assay: BLI; tip ADI-34145 IgG, solution anti-CD3 Fab
T21 construct: anti-CD3 Fab by papain digestion of the IgG1
T21 sequence (VH, as listed by the source limits assumed, chain 1 of 2): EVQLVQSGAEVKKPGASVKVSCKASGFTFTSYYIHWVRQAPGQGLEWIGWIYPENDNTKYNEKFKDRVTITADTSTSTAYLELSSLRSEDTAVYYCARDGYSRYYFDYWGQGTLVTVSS
T21 sequence (VL, as listed by the source limits assumed, chain 2 of 2): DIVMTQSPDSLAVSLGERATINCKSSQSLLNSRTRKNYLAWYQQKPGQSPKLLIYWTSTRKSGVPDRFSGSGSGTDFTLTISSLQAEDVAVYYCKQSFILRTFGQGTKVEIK
Protocol: as §1, §4

ADI-26920 Fab = target: T22, ADI-26920 Fab; assay: BLI; tip ADI-34145 IgG, solution anti-CD3 Fab
T22 construct: anti-CD3 Fab by papain digestion of the IgG
T22 sequence (VH, as listed by the source limits assumed, chain 1 of 2): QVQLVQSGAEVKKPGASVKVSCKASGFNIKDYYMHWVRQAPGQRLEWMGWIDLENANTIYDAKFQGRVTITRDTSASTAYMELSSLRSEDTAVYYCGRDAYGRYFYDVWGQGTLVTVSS
Protocol: as §1, §4

CTL-19613 Fab = target: T23, CTL-19613 Fab; assay: BLI; tip ADI-34145 IgG, solution anti-CD3 Fab
T23 construct: anti-CD3 Fab by papain digestion of the IgG1
Protocol: as §1, §4

T1 sequence (VH, as listed by the source, chain 1 of 2): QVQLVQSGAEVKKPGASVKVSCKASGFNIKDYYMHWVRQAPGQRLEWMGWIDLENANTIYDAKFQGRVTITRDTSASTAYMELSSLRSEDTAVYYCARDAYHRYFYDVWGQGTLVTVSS
T1 sequence (VL, as listed by the source, chain 2 of 2): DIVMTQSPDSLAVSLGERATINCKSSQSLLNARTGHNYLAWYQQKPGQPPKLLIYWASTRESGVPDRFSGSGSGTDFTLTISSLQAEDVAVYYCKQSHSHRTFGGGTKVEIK

B1: ADI-34134 IgG (antibody, V domains shown)
VH: QVQLVQSGAEVKKPGSSVKVSCKASGGTFSSYAISWVRQAPGQGLEWMGGIIPIFGTANYAQKFQGRVTITADESTSTAYMELSSLRSEDTAVYYCARGAPNYYGSGGYDDGWFDPWGQGTLVTVSS
VL: EIVLTQSPGTLSLSPGERATLSCRASQSVSSDYLAWYQQKPGQAPRLLIYGASSRATGIPDRFSGSGSGTDFTLTISRLEPEDFAVYYCQQFGRVPTFGGGTKVEIK
binding result (ADI-74965): binds
Kd (CTL-19613 IgG): 9.21 nM
Kd (ADI-26928 IgG): 0.46 nM
Kd (ADI-26954 IgG): 1.04 nM
Kd (ADI-26906 IgG): 0.43 nM
Kd (ADI-26927 IgG): 0.45 nM
Kd (ADI-26916 IgG): 0.57 nM
Kd (ADI-26913 IgG): 0.77 nM
Kd (ADI-26941 IgG): 1.13 nM
Kd (ADI-26921 IgG): 0.85 nM
Kd (ADI-22523 IgG): 0.46 nM

B2: ADI-34145 IgG (antibody, V domains shown)
VH: EVQLLESGGGLVQPGGSLRLSCAASGFTFSSYAMSWVRQAPGKGLEWVSTISGSGGSTYYADSVKGRFTISRDNSKNTLYLQMNSLRAEDTAVYYCARLGGRRGSGSSYYYYYGMDVWGQGTTVTVSS
VL: not shown
notes: anti-ID IgG
binding result (CTL-62228): no binding (tested: up to 200 nM)
binding result (CTL-62227): no binding (tested: up to 200 nM)
binding result (ADI-70327): no binding (tested: up to 200 nM)
binding result (CTL-62223): no binding (tested: up to 200 nM)
binding result (ADI-67445): no binding (tested: up to 200 nM)
binding result (CTL-62240): no binding (tested: up to 200 nM)
Kd (ADI-22523 Fab [1]): 4.13 nM
Kd (ADI-26913 Fab): 7.52 nM
Kd (ADI-26954 Fab): 19.4 nM
Kd (ADI-26906 Fab): 3.55 nM
Kd (ADI-22523 Fab [2]): 3.16 nM
binding result (CTL-19672 Fab): no binding
Kd (ADI-26920 Fab): 3.71 nM
binding result (CTL-19613 Fab): no binding

— patent US20250019439A1 (Adimab, published 2025)
